Measured values: PMC9352680, “A comprehensive thermodynamic model for RNA binding by the Saccharomyces cerevisiae Pumilio protein PUF4”
Substitutions are numbered along the chain they refer to. Numbers in names are those of the source.

T1: PUF4 RNA-binding domain (Saccharomyces cerevisiae, UniProt P25339 537-888)
T1 sequence: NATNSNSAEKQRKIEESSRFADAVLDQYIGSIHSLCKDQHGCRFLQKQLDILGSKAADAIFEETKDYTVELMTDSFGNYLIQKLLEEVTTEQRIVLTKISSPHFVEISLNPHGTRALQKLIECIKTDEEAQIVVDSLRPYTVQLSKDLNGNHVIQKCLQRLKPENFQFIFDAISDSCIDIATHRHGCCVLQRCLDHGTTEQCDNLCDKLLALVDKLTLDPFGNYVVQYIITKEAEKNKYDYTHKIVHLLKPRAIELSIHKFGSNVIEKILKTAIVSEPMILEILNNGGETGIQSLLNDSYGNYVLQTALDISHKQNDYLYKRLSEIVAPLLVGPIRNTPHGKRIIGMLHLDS

B1: Id_ii_S4_P3E.2_K3.1_C3.2_[T-1G]_H3.1_A3.1_F3.1_T3.2_[T9A]_[A10G] (ssRNA)
RNA: UUUGACAACUGAUCGUUCUUUCUCGUGUAUAUAAGUUCUUUCUCGAUCAGUUGUCUUU
B2: Id_ii_S4_P3E.3_K3.2_C3.2_[C-2G]_H3.2_A3.1_F3.1_T3.2_[A10T] (ssRNA)
RNA: B1 RNA with C24G, G25U, G27A, A34U, G35U
B3: Id_ii_S4_P3E.3_K3.2_C3.2_[C-2T]_[T-1G]_H3.2_A3.1_F3.1_T3.2_[T9A]_[A10T] (ssRNA)
RNA: B1 RNA with C24U, G27A, G35U
B4: Id_ii_S4_P3E.2_K3.1_C3.2_H3.1_A3.1_F3.1_T3.2_[T9A] (ssRNA)
RNA: B1 RNA with G25U, G35A
B5: Id_ii_S4_P3E.3_K3.2_C3.2_[C-2T]_[T-1C]_H3.2_A3.1_F3.1_T3.2_[T9A] (ssRNA)
RNA: B1 RNA with C24U, G25C, G27A, G35A
B6: Id_ii_S4_P3E.3_K3.2_C3.2_[C-2G]_[T-1C]_H3.2_A3.1_F3.1_T3.2_[T9C]_[A10T] (ssRNA)
RNA: B1 RNA with C24G, G25C, G27A, A34C, G35U
B7: Id_ii_S4_P3E.3_K3.2_C3.2_[C-2G]_[T-1G]_H3.2_A3.1_F3.1_T3.2_[T9A] (ssRNA)
RNA: B1 RNA with C24G, G27A, G35A
B8: Id_ii_S4_P3E.3_K3.2_C3.2_[C-2T]_[T-1C]_H3.2_A3.1_F3.1_T3.2_[T9C] (ssRNA)
RNA: B1 RNA with C24U, G25C, G27A, A34C, G35A
B9: Id_ii_S4_P3E.3_K3.2_C3.2_[C-2G]_[T-1C]_H3.2_A3.1_F3.1_T3.2_[T9A]_[A10C] (ssRNA)
RNA: B1 RNA with C24G, G25C, G27A, G35C
B10: Id_ii_S4_P3E.2_K3.1_C3.2_[T-1C]_H3.1_A3.1_F3.1_T3.2_[T9G]_[A10C] (ssRNA)
RNA: B1 RNA with G25C, A34G, G35C
B11: Id_ii_S4_P3E.2_K3.1_C3.2_H3.1_A3.1_F3.1_T3.2_[T9G]_[A10T] (ssRNA)
RNA: B1 RNA with G25U, A34G, G35U
B12: Id_ii_S4_P3E.3_K3.2_C3.2_[C-2G]_H3.2_A3.1_F3.1_T3.2 (ssRNA)
RNA: B1 RNA with C24G, G25U, G27A, A34U, G35A
B13: Id_ii_S4_P3E.2_K3.1_C3.2_[T-1C]_H3.1_A3.1_F3.1_T3.2_[A10T] (ssRNA)
RNA: B1 RNA with G25C, A34U, G35U
B14: Id_ii_S4_P3E.3_K3.2_C3.2_[C-2G]_H3.2_A3.1_F3.1_T3.2_[T9C]_[A10T] (ssRNA)
RNA: B1 RNA with C24G, G25U, G27A, A34C, G35U
B15: Id_ii_S4_P3E.3_K3.2_C3.2_[C-2T]_[T-1A]_H3.2_A3.1_F3.1_T3.2_[T9C] (ssRNA)
RNA: B1 RNA with C24U, G25A, G27A, A34C, G35A
B16: Id_ii_S4_P3E.3_K3.2_C3.2_[C-2T]_H3.2_A3.1_F3.1_T3.2_[A10T] (ssRNA)
RNA: B1 RNA with C24U, G25U, G27A, A34U, G35U
B17: Id_ii_S4_P3E.2_K3.1_C3.2_[T-1C]_H3.1_A3.1_F3.1_T3.2_[T9A]_[A10T] (ssRNA)
RNA: B1 RNA with G25C, G35U
B18: Id_ii_S4_P3E.3_K3.2_C3.2_[C-2G]_H3.2_A3.1_F3.1_T3.2_[T9A]_[A10G] (ssRNA)
RNA: B1 RNA with C24G, G25U, G27A
B19: Id_ii_S4_P3E.3_K3.2_C3.2_[C-2A]_[T-1C]_H3.2_A3.1_F3.1_T3.2_[T9C]_[A10C] (ssRNA)
RNA: B1 RNA with C24A, G25C, G27A, A34C, G35C
B20: Id_ii_S4_P3E.2_K3.1_C3.2_H3.1_A3.1_F3.1_T3.2_[A10T] (ssRNA)
RNA: B1 RNA with G25U, A34U, G35U
B21: Id_ii_S4_P3E.2_K3.1_C3.2_[T-1A]_H3.1_A3.1_F3.1_T3.2 (ssRNA)
RNA: B1 RNA with G25A, A34U, G35A
B22: Id_ii_S4_P3E.2_K3.1_C3.2_[T-1C]_H3.1_A3.1_F3.1_T3.2_[T9G]_[A10T] (ssRNA)
RNA: B1 RNA with G25C, A34G, G35U
B23: Id_ii_S4_P3E.2_K3.1_C3.2_[T-1C]_H3.1_A3.1_F3.1_T3.2_[A10G] (ssRNA)
RNA: B1 RNA with G25C, A34U
B24: Id_ii_S4_P3E.3_K3.2_C3.2_[C-2T]_H3.2_A3.1_F3.1_T3.2_[T9C] (ssRNA)
RNA: B1 RNA with C24U, G25U, G27A, A34C, G35A
B25: Id_ii_S4_P3E.3_K3.2_C3.2_[C-2T]_H3.2_A3.1_F3.1_T3.2_[T9G]_[A10T] (ssRNA)
RNA: B1 RNA with C24U, G25U, G27A, A34G, G35U
B26: Id_ii_S4_P3E.3_K3.2_C3.2_[C-2G]_[T-1C]_H3.2_A3.1_F3.1_T3.2_[A10T] (ssRNA)
RNA: B1 RNA with C24G, G25C, G27A, A34U, G35U
B27: Id_ii_S4_P3E.3_K3.2_C3.2_[C-2A]_[T-1C]_H3.2_A3.1_F3.1_T3.2_[T9C]_[A10G] (ssRNA)
RNA: B1 RNA with C24A, G25C, G27A, A34C
B28: Id_ii_S4_P3E.3_K3.2_C3.2_[C-2A]_[T-1A]_H3.2_A3.1_F3.1_T3.2_[T9C]_[A10G] (ssRNA)
RNA: B1 RNA with C24A, G25A, G27A, A34C
B29: Id_ii_S4_P3E.2_K3.1_C3.2_[T-1C]_H3.1_A3.1_F3.1_T3.2_[T9C]_[A10T] (ssRNA)
RNA: B1 RNA with G25C, A34C, G35U
B30: Id_ii_S4_P3E.3_K3.2_C3.2_[C-2A]_[T-1G]_H3.2_A3.1_F3.1_T3.2_[T9A]_[A10G] (ssRNA)
RNA: B1 RNA with C24A, G27A
B31: Id_ii_S4_P3E.3_K3.2_C3.2_[C-2T]_[T-1C]_H3.2_A3.1_F3.1_T3.2_[T9A]_[A10T] (ssRNA)
RNA: B1 RNA with C24U, G25C, G27A, G35U
B32: Id_ii_S4_P3E.2_K3.1_C3.2_[T-1A]_H3.1_A3.1_F3.1_T3.2_[T9G]_[A10C] (ssRNA)
RNA: B1 RNA with G25A, A34G, G35C
B33: Id_ii_S4_P3E.3_K3.2_C3.2_[C-2T]_[T-1C]_H3.2_A3.1_F3.1_T3.2_[A10T] (ssRNA)
RNA: B1 RNA with C24U, G25C, G27A, A34U, G35U
B34: Id_ii_S4_P3E.2_K3.1_C3.2_[T-1C]_H3.1_A3.1_F3.1_T3.2_[T9C]_[A10G] (ssRNA)
RNA: B1 RNA with G25C, A34C
B35: Id_ii_S4_P3E.3_K3.2_C3.2_[C-2G]_[T-1G]_H3.2_A3.1_F3.1_T3.2_[T9A]_[A10C] (ssRNA)
RNA: B1 RNA with C24G, G27A, G35C
B36: Id_ii_S4_P3E.3_K3.2_C3.2_[C-2A]_[T-1C]_H3.2_A3.1_F3.1_T3.2_[T9C]_[A10T] (ssRNA)
RNA: B1 RNA with C24A, G25C, G27A, A34C, G35U
B37: Id_ii_S4_P3E.2_K3.1_C3.2_[T-1G]_H3.1_A3.1_F3.1_T3.2 (ssRNA)
RNA: B1 RNA with A34U, G35A
B38: Id_ii_S4_P3E.3_K3.2_C3.2_[C-2T]_[T-1C]_H3.2_A3.1_F3.1_T3.2_[T9C]_[A10G] (ssRNA)
RNA: B1 RNA with C24U, G25C, G27A, A34C
B39: Id_ii_S4_P3E.3_K3.2_C3.2_[C-2T]_H3.2_A3.1_F3.1_T3.2 (ssRNA)
RNA: B1 RNA with C24U, G25U, G27A, A34U, G35A
B40: Id_ii_S4_P3E.3_K3.2_C3.2_[C-2G]_[T-1G]_H3.2_A3.1_F3.1_T3.2_[A10G] (ssRNA)
RNA: B1 RNA with C24G, G27A, A34U
B41: Id_ii_S4_P3E.3_K3.2_C3.2_[C-2T]_[T-1G]_H3.2_A3.1_F3.1_T3.2_[T9G]_[A10C] (ssRNA)
RNA: B1 RNA with C24U, G27A, A34G, G35C
B42: Id_ii_S4_P3E.2_K3.1_C3.2_[T-1G]_H3.1_A3.1_F3.1_T3.2_[A10T] (ssRNA)
RNA: B1 RNA with A34U, G35U
B43: Id_ii_S4_P3E.3_K3.2_C3.2_[C-2A]_[T-1C]_H3.2_A3.1_F3.1_T3.2_[T9C] (ssRNA)
RNA: B1 RNA with C24A, G25C, G27A, A34C, G35A
B44: Id_ii_S4_P3E.3_K3.2_C3.2_[C-2T]_[T-1A]_H3.2_A3.1_F3.1_T3.2_[T9A]_[A10C] (ssRNA)
RNA: B1 RNA with C24U, G25A, G27A, G35C
B45: Id_ii_S4_P3E.2_K3.1_C3.2_[T-1C]_H3.1_A3.1_F3.1_T3.2 (ssRNA)
RNA: B1 RNA with G25C, A34U, G35A
B46: Id_ii_S4_P3E.2_K3.1_C3.2_[T-1A]_H3.1_A3.1_F3.1_T3.2_[T9A] (ssRNA)
RNA: B1 RNA with G25A, G35A
B47: Id_ii_S4_P3E.3_K3.2_C3.2_[C-2G]_[T-1G]_H3.2_A3.1_F3.1_T3.2_[A10T] (ssRNA)
RNA: B1 RNA with C24G, G27A, A34U, G35U
B48: Id_ii_S4_P3E.2_K3.1_C3.2_[T-1G]_H3.1_A3.1_F3.1_T3.2_[T9A]_[A10C] (ssRNA)
RNA: B1 RNA with G35C
B49: Id_ii_S4_P3E.3_K3.2_C3.2_[C-2T]_[T-1C]_H3.2_A3.1_F3.1_T3.2_[A10C] (ssRNA)
RNA: B1 RNA with C24U, G25C, G27A, A34U, G35C
B50: Id_ii_S4_P3E.2_K3.1_C3.2_[T-1A]_H3.1_A3.1_F3.1_T3.2_[T9A]_[A10C] (ssRNA)
RNA: B1 RNA with G25A, G35C
B51: Id_ii_S4_P3E.2_K3.1_C3.2_[T-1C]_H3.1_A3.1_F3.1_T3.2_[T9C]_[A10C] (ssRNA)
RNA: B1 RNA with G25C, A34C, G35C
B52: Id_ii_S4_P3E.3_K3.2_C3.2_[C-2T]_[T-1A]_H3.2_A3.1_F3.1_T3.2_[A10C] (ssRNA)
RNA: B1 RNA with C24U, G25A, G27A, A34U, G35C
B53: If_S4_P3E.2_K3.1_C3.2_H3.1_A3.1_F3.1_T3.2 (ssRNA)
RNA: B1 RNA with G25U, A34U, G35A

Molecular target: T1, PUF4 RNA-binding domain
Assay: Mg; RNA-MaP; 20 mM Na-HEPES pH 7.4, 30 mM KOAc, 0.75 mM MgCl2, 0.1% Tween-20, 5% glycerol, 0.1 mg/mL BSA, 2 mM DTT; 25 C; 0.0125-409.6 nM protein
Details: tags: N-His6-TEV cleaved; C-SNAP kept, Cy3B-labelled; label: tethered on chip by stalled RNA polymerase

Binder	Kd [nM]
UCUCUUCGUAUUGUUAUCUCUU (ssRNA) [Ib_S1_P5E.1_K5.1_C5.1_H5.1_[T1C]_A5.1_[A7G]_F5.1_T5.1]	> 2300
UCUCUUCGUAAUAUUAUCUCUU (ssRNA) [Ib_S1_P5E.1_K5.1_C5.1_H5.1_[T1C]_A5.1_[T5A]_F5.1_T5.1]	2020
B1	6.69
B2	16.8
B3	1.81
B4	3.34
B5	472
B6	557
B7	676
B8	252
B9	1200
B10	2
B11	3.88
B12	43.8
B13	1.16
B14	146
B15	94.6
B16	70
B17	1.23
B18	304

Binder	Kd [nM]
B19	184
B20	1.14
B21	1.73
B22	1.77
B23	1.76
B24	220
B25	575
B26	149
B27	2050
B28	745
B29	1.47
B30	1140
B31	151
B32	2.75
B33	38
B34	6.54
B35	2160
B36	132
B37	1.4
B38	467

Binder	Kd [nM]
B39	117
B40	562
B41	2.89
B42	1.48
B43	261
B44	326
B45	0.873
B46	5.28
B47	234
B48	8.59
B49	120
B50	4.63
B51	2.05
B52	108
B53	0.951
UCUCUUCGUAUCAUUAUCUCUU (ssRNA) [Ib_S1_P5E.1_K5.1_C5.1_H5.1_[T1C]_A5.1_[T6C]_F5.1_T5.1]	1380
UCUCUUAGUAUAAUUAUCUCUU (ssRNA) [Ib_S1_P5E.1_K5.1_C5.1_H5.1_[T1A]_A5.1_[T6A]_F5.1_T5.1]	1030
UCUCUUAGUACUAUUAUCUCUU (ssRNA) [Ib_S1_P5E.1_K5.1_C5.1_H5.1_[T1A]_A5.1_[T5C]_F5.1_T5.1]	1400
